Legend:
[1] = molecular target: MPER WT peptide; assay: ELISA, antigen on the plate, 2F5 IgG titrated 2.6e-7 to 1e-1 ug/ul
[2] = molecular target: gp41e-1KU2 (Thermus aquaticus (origin of the scaffold protein, Table 1)); assay: as above
[3] = molecular target: gp41e-2MAT (E. coli (origin of the scaffold protein, Table 1)); assay: kinetics with 2F5 as analyte (Biacore per paragraph 255)
[4] = molecular target: MPER WT peptide; assay: as above
[5] = molecular target: gp41e-1LGY (Rhizopus niveus (origin of the scaffold protein, Table 1)); assay: as above
[6] = molecular target: MPER Cyclized peptide (HIV-1 gp41 MPER-derived, synthetic); assay: as above
[7] = molecular target: gp41e-1KU2 (Thermus aquaticus (origin of the scaffold protein, Table 1)); assay: as above

For 2F5 antibody, the EC50 (read off the curve) [1] was 0.2 µg/mL, the EC50 (read off the curve) [2] was 0.2 µg/mL and the Kd [3] was 9.35 nM. For the same substance, the koff [3] was 0.000679 s⁻¹, the kon [3] was 72600 M⁻¹ s⁻¹ and the Kd [4] was 6.45 nM. The koff [4] was 0.00356 s⁻¹, the kon [4] was 552000 M⁻¹ s⁻¹ and the Kd [5] was 10.7 nM. It also gave a koff [5] of 0.00396 s⁻¹, a kon [5] of 369000 M⁻¹ s⁻¹ and a Kd [6] of 5.09 nM. It also gave a koff [6] of 0.00269 s⁻¹, a kon [6] of 528000 M⁻¹ s⁻¹ and a Kd [7] of 2.63 nM. For the same substance, the koff [7] was 0.00287 s⁻¹ and the kon [7] was 1.09e+06 M⁻¹ s⁻¹.

— patent publication US20100068217A1
